The values below come from publication PMC8427864, “Optimizing operational parameters for the enzymatic production of furandicarboxylic acid building block” (Microbial Cell Factories, 2021).

The target of data set [1] is T1, HMFO (hydroxymethylfurfural oxidase) WT (Methylovorus sp. MP688, UniProt E4QP00).
T1 construct: gene MPQ_0130; synthetic gene in pET23b(+), E. coli BL21(DE3)pLysS, purified by two anion-exchange steps; FAD-containing; no tag mentioned
T1 sequence (E4QP00 1-531): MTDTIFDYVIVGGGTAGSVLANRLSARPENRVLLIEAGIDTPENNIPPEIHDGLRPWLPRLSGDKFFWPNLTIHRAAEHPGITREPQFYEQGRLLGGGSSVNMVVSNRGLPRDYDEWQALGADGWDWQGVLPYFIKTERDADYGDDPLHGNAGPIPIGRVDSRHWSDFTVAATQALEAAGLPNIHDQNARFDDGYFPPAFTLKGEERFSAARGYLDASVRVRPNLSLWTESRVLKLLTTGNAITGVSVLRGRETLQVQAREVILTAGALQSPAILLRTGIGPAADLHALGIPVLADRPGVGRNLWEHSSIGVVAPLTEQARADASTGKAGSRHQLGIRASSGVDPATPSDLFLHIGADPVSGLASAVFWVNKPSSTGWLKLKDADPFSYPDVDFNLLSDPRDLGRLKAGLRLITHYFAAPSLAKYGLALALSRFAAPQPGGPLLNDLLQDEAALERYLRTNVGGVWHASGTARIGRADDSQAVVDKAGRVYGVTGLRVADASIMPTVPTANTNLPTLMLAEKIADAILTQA
Put plainly: UV-visible spectra of folded enzyme and heat-released flavin. It is filed as binding. The following applies: flavin released at 95 °C, 5 min.

The test system of data set [2] is T2, O=Cc1ccc(CO)o1.
T2 construct: synthetic gene in pET23b(+), E. coli BL21(DE3)pLysS, purified by two anion-exchange steps; FAD-containing; no tag mentioned
Put plainly: AmplexRed/HRP-coupled H2O2 assay, continuous steady state. It is filed as biochemical, Methylovorus sp. MP688. The conditions noted are these: 50 mM Tris/HCl, pH 7.0, air oxygen as co-substrate, 8BxHMFO (Methods print G356K).

Data set [3] deals with T2, O=Cc1ccc(CO)o1. The data set is described as above. It is filed as biochemical, Methylovorus sp. MP688. The conditions noted are these: 50 mM Tris/HCl, pH 7.0, air oxygen as co-substrate. The source says: (§1) AmplexRed/HRP-coupled H2O2 assay, continuous steady state on HMFO (hydroxymethylfurfural oxidase) WT | The saturation profiles for all the variants discarded any inhibitory effect by these two substrates

Data set [4] relates to T3, O=Cc1ccc(C=O)o1.
T3 construct: synthetic gene in pET23b(+), E. coli BL21(DE3)pLysS, purified by two anion-exchange steps; FAD-containing; no tag mentioned
Described as above. It is filed as biochemical, Methylovorus sp. MP688. The conditions noted are these: 50 mM Tris/HCl, pH 7.0, air oxygen as co-substrate.
From the text: as §1

As for `Cc1cc2nc3c(=O)[nH]c(=O)nc-3n(C[C@H](O)[C@H](O)[C@H](O)COP(=O)(O)OP(=O)(O)OC[C@H]3O[C@@H](n4cnc5c(N)ncnc54)[C@H](O)[C@@H]3O)c2cc1C` [FAD], the “UV-visible spectra of folded enzyme and heat-released flavin” value in data set [1] is “The spectra of the folded enzymes and the free flavin, obtained by heat treatment”.

“HMFO (hydroxymethylfurfural oxidase) WT (Methylovorus sp. MP688; A419Y/A435E/G356H/H74Y/I73V/T414K/V367R/W466F)”: in data set [2], the Km – broadly, the concentration of substrate that gives half-maximal velocity – stood at 17.1 ± 1.6 mM and the kcat (commonly the maximal rate divided by the concentration of active sites) came to 0.09 ± 0.0033 s⁻¹.

For “HMFO (hydroxymethylfurfural oxidase) WT (Methylovorus sp. MP688; V367R)”, in data set [3], the Km was determined as 4.2 ± 0.3 mM and the kcat was found to be 0.747 ± 0.0167 s⁻¹. Also, in data set [4], the Km is recorded as 1.1 ± 0.2 mM and the kcat turned out to be 0.0367 ± 0.0017 s⁻¹.

In the case of “HMFO (hydroxymethylfurfural oxidase) WT (Methylovorus sp. MP688; V367R/W466F)”, in data set [3], the Km is listed as 23.1 ± 2.8 mM and the kcat came out at 0.0567 ± 0.0033 s⁻¹. Moreover, in data set [4], the Km was 4.9 ± 0.5 mM and the kcat is 0.025 ± 0.00067 s⁻¹.

Consider “HMFO (hydroxymethylfurfural oxidase) WT (Methylovorus sp. MP688; W466F)”, for which, in data set [3], the Km turned out to be 6.4 ± 0.5 mM and the kcat was 0.0233 ± 0.0005 s⁻¹. For the same molecule, in data set [4], the Km is reported as 1.8 ± 0.3 mM and the kcat amounted to 0.005 ± 0.00017 s⁻¹.
